Biological target: cation-independent mannose-6-phosphate receptor (CIMPR)
Assay: CIMPR affinity chromatography with M6P elution gradient; spent cell culture medium before AEX product capture

percent able to bind to the CIMPR: 80%
Substance: recombinant human α-galactosidase A (rhα-Gal A) (from UniProt P06280 32-429) (enzyme)
